Test: yeast display, Sf9 membrane polyspecificity reagent, FACS + sequencing; frameworks hold sequencing errors
Outline: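 Genes from sorted yeast were amplified by colony PCR, read by MiSeq 2 × 250 sequencing and filtered on CDR length. These cells carried a synthetic nanobody library in Saccharomyces cerevisiae BJ5465 and were sorted by FACS into low and high (top ~1%) gates on anti-HA and streptavidin fluorescence. Polyreactivity is labelled according to the gate of origin.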

Sequence | polyreactivity (PSR sort gate)
QVQLVESGGGIVQAGGSLRLSCAASGRTTSVYAIGWYRQAPGKERELVAAINRSDGGTYYADSVKGRFTISRDNAKNTVYLQMNRLQPEDTAVYYCNAVVLYGWYGRRYSSRLDYWGQGTQVTVSS | high polyreactivity
QVQLVESGGGIVQAGGSLRLSCAASGSIFGPYAMGWYRQAPGKERELVAAITWTGGRTYYADSVKGRFTISRDNAKNTVYLQMNSLKPEDTAVYYCAADYSPSTWYLYYTLYYYWGQGTQVTVSS | low polyreactivity
QVQLVESGGGIVQAGGSLRLSCAASGSIFHGYAMGWYRQAPGKERELVASITWNGGSTYYADSVKGRFTISRDNAKNTVYLQMNSLKPEDTAVYYCATSKWRGRGRTYDYWGQGTQVTVSS | high polyreactivity
QVQLVESGGGIVQAGGSLRLSCAASGSIFITYAMGWYRPAPGKERELVAAIRDSGDRTYYADSVKGRFTISRDNAKNTVYLQMNSLKPEDTAVYYCAARIWTGRGRKLGYGYVYWGQGTQVTVSS | low polyreactivity
QVQLVESGGGIVQAGGSLRLSCAASGSIFLGYTMGLYRQAPGKERELVAAINSSGGSTYYADSVKGRFTISRDNAKNTVYLQMNSLKPEDTAVYYCADANSILLFDSWGQGTQVTVSS | low polyreactivity
QVQLVESGGGIVQAGGSLRLSCAASGSIYGYAMGWYRQAPGKERELVAAISGRGGRTYYADSVKGRFTISRDNAKNTVYLQMNSLKPEDTAVYYCNVQWRYPYHYTVDYWGQGTQVTVSS | high polyreactivity
QVQLVESGGGIVQAGGSLRLSCAASGSNFTAYDMGWYRPAPGKDRELVAALNVSAGTTYYADSVKGRFTISRDHAKNTVYLQMNSLKPEDTAVYYCATYRSPTPYTRENIYAYWGQGTLVTVSS | low polyreactivity
QVQLVESGGGIVQAGGSLRLSCAASGSNFYANPMGWYRQAPGKERELVAAITRSGAGTYYADSVKGRFTISRDNAKNTVYLQMNSLKPEDTAVYDCAKRTKTPTGYDWGGYDYWGQGTQVTVSS | high polyreactivity
QVQLVESGGGIVQAGGSLRLSCAASGSTFDSYAMGWYGQAPGKERELVATISWTGSSTYYADSVKGRFTISRDNAKNTVYLQMNSLKPEDTAVYYCATDQYYEYDYWGQGTQVTVSS | low polyreactivity
QVQLVESGGGIVQAGGSLRLSCAASGSTFDSYAMGWYRQAPGKERELVATISWTGSSTYYADSVKGRFTISRDNAKNTVYLQMNSLKPADTAVYYCATDQYYEYDYWGQGTQVTVSS | low polyreactivity
QVQLVESGGGIVQAGGSLRLSCAASGSTFEANAMGWYRQARGKERELVAAISSGDRTNYADSVKGRFTISRDNAKNTVYLQLNSLKPEDNAVYFCAAPTDSYYEFDYWGQGTQGTVSS | low polyreactivity
QVQLVESGGGIVQAGGSLRLSCAASGSTFGTYAMGWYRQAPGKEMELVAAISNSGGSTYYADSVKGRFTISRDNAKNTVYLLMNSLKQEDTAVYYCNTDGLVRNGPFYSWGQGTQVTVSS | low polyreactivity
QVQLVESGGGIVQAGGSLRLSCAASGSTFPHNAMGWYRQAPGKERQLVAALSVGGGSTHYADSVKGRFTISRDNAKNTVYLQMNSLKPEDTAVYYCAKDYAYQYSFVTYDYWGQGTQVTVSS | low polyreactivity
QVQLVESGGGIVQAGGSLRLSCAASGSTFTWYAMGLYRQAPGKERELVADISYGGGSTYYADSVKGRFTISRDNSKNTVYLQMNSLKPEDTAVYYCTALGAKGYVKGFDYWGQGTQVTVSS | low polyreactivity
QVQLVESGGGIVQAGGSLRLSCAASGSTLVKYAMGWYRQAPGKERELVAAISWSGGRTYYADSVKGRFTISRDNAKNTVYLQMNSLKPEDTAVYYCAARRKAVRYDYWGQGTQVTVSS | high polyreactivity
QVQLVESGGGIVQAGGSLRLSCAASGSTSGSYGMGWYRQAPGKERELVAAIRWSGGRTYYADSVKGRFTISRDKAKNTVYLQMNSLKPEDTAVYFCAKFRYTVSGYNYWGQRTQVTVSS | high polyreactivity
QVQLVESGGGIVQAGGSLRLSCAASGYIFKRYAMGWYRQAPWKERELVAAITGRGGSTYFADSVKGRFKISRDNAKNTVYLQMNSLKPEDTAVYYCAADGYVKGDYWGQGTQVTVSS | high polyreactivity

From the nanobody polyreactivity screen of Harvey et al. (2022)
